# Assay results from article PMC10082768.
# Legend:
# [1] = molecular target: MUC2-C, the C-terminal part of the human MUC2 mucin, fully glycosylated (human); assay: SEC-SAXS; 25 °C; 25 mM HEPES pH 7.4, 100 mM NaCl, 10 mM CaCl2; beamline BM29, ESRF
# [2] = molecular target: MUC2-C, the C-terminal part of the human MUC2 mucin, fully glycosylated (human); assay: polyacrylamide gel electrophoresis, non-reduced against reduced; purified MUC2-C; band of around 300 kDa non-reduced, about 150 kDa after reduction
substance,measurement,setting,value
"MUC2-C, the C-terminal part of the human MUC2 mucin, fully glycosylated (domain or fragment)",stoichiometry N,[1],2
same,stoichiometry N,[2],2
